One assay has as its target HLA-B*44:02. Description: IEDB peptide-MHC binding, purified MHC/competitive/radioactivity; filed as Kd, often an IC50 or EC50 that approximates it; ≥ and ≤ were set here for values at or beyond the usual limits of such assays.
The target of another assay is HLA-B*44:03. Described as above.
Assay [1] has as its target HLA-A*02:01. Description: IEDB peptide-MHC binding, purified MHC/competitive/fluorescence; ≥ and ≤ were set here for values at or beyond the usual limits of such assays.
The target in assay [2] is HLA-A*02:01. Description: IEDB peptide-MHC binding, purified MHC/direct/fluorescence; filed as Kd, often an IC50 or EC50 that approximates it; ≥ and ≤ were set here for values at or beyond the usual limits of such assays.
A further assay deals with HLA-A*03:01. The description is as above. The settings on record: source organism: SARS-CoV1.
The next assay deals with HLA-A*31:01. The assay is described as above. The settings on record: source organism: SARS-CoV1.
Another assay has as its target HLA-B*15:01. Described as above.
A further assay has as its target HLA-B*07:02. The description is as above. The settings on record: source organism: Mycobacterium tuberculosis.
In another assay the target is HLA-A*69:01. The assay is described as above.
In another assay the target is HLA-A*11:01. The assay is described as above. The settings on record: source organism: Homo sapiens.
The target in assay [3] is HLA-A*02:01. Description: IEDB peptide-MHC binding, purified MHC/competitive/fluorescence; filed as Kd, often an IC50 or EC50 that approximates it; ≥ and ≤ were set here for values at or beyond the usual limits of such assays. The settings on record: source organism: Vaccinia virus.
Another assay addresses HLA-A*26:01. Description: IEDB peptide-MHC binding, purified MHC/competitive/radioactivity; filed as Kd, often an IC50 or EC50 that approximates it; ≥ and ≤ were set here for values at or beyond the usual limits of such assays. The settings on record: source organism: Dengue virus 2 Jamaica/1409/1983.
Another assay has as its target HLA-A*02:02. The description is as above.
The target of another assay is HLA-A*02:03. The assay is described as above.
Another assay concerns the target HLA-A*02:06. Described as above.
In a further assay the target is HLA-A*01:01. Description: IEDB peptide-MHC binding, purified MHC/direct/fluorescence; filed as Kd, often an IC50 or EC50 that approximates it; ≥ and ≤ were set here for values at or beyond the usual limits of such assays. The settings on record: source organism: Homo sapiens.
[4] abbreviates: source organism: Dengue virus 2 Thailand/NGS-C/1944.
[5] abbreviates: source organism: Zaire ebolavirus.
The mark [6] stands for this setting: source organism: Dengue virus 2 Jamaica/1409/1983.
[7] abbreviates: source organism: Sudan ebolavirus.
The mark [8] stands for this setting: source organism: Dengue virus 1 Singapore/S275/1990.
The mark [9] stands for this setting: source organism: Cryptosporidium parvum.
Where [10] appears, read: source organism: Mycobacterium tuberculosis.
Where [11] appears, read: source organism: Mycobacterium avium 104.
The mark [12] stands for this setting: source organism: Dengue virus 3 Martinique/1243/1999.
Where [13] appears, read: source organism: SARS coronavirus Tor2.
[14] abbreviates: source organism: Giardia lamblia ATCC 50803.
The mark [15] stands for this setting: source organism: Vaccinia virus WR.

As to NEMVLLQMEN, the Kd (usually the free concentration of one partner at which half of the binding sites on the other are occupied at equilibrium, for simple one-to-one binding) worked out at 512 nM in the assay with HLA-B*44:02 (setting [4]) and 1440 nM in the assay with HLA-B*44:03 (setting [4]). Turning to VLFDLDEDD, in the assay with HLA-A*02:01 [1] (setting [5]), the IC50 (in general, the concentration that inhibits the measured activity by half) is 3740 nM.

As to LLWFNYLFG, the IC50 with HLA-A*02:01 [1] (source organism: Variola virus) was no less than 327000 nM. As to IESALNDTW, the Kd was 127 nM with HLA-B*44:02 (setting [6]) and 67.9 nM with HLA-B*44:03 (setting [6]). As to KMSEYKGPV, the Kd is 1520 nM with HLA-A*02:01 [2] (source organism: SARS-CoV1), 10600 nM with HLA-A*03:01, 2090 nM with HLA-A*31:01 and 6670 nM with HLA-B*15:01 (source organism: SARS-CoV1). In turn, LVPKNSPGM showed an IC50 with HLA-A*02:01 [1] (setting [7]) of 17700 nM. Turning to LRFANPLSN, in the assay with HLA-A*02:01 [1] (source organism: Vaccinia virus), the IC50 was no less than 164000 nM. As to NEGIMAVGI, the Kd with HLA-B*44:02 (setting [8]) is 48 nM; in the assay with HLA-B*44:03 (setting [8]) it was 160 nM.

In turn, SLTKLFSYG came in with an IC50 in the assay with HLA-A*02:01 [1] (source organism: Variola virus) of 8920 nM. For the sequence RNRDQSNAL, the Kd in the assay with HLA-B*07:02 is 112 nM. Sequence GLVRALTAF registered a Kd with HLA-B*15:01 (source organism: Mycobacterium tuberculosis variant bovis BCG str. Pasteur 1173P2) of 255 nM. Consider EEYVDYMPVM, for which the Kd with HLA-B*44:03 (source organism: Dengue virus 4 Philippines/H241/1956) worked out at 869 nM. As for KLIQIEKVL, the figures for the Kd with HLA-A*02:01 [2] (setting [9]) and with HLA-A*69:01 (setting [9]) were 3250 nM and no less than 20000 nM, respectively. Take STEIGLLVG: the Kd with HLA-A*11:01 was 12400 nM. Take KLIIHNPEL: the Kd with HLA-A*02:01 [3] turned out to be 2 nM. KLSSLGLNAV had an IC50 in the assay with HLA-A*02:01 [1] (source organism: Hepatitis C virus subtype 1b) of 25 nM. In the assay with HLA-A*02:01 [1] (setting [5]), ENSSAMVQV gave an IC50 of no less than 277000 nM.

In the case of LLWAFAHRQ, the results for the Kd in the assay with HLA-A*02:01 [2] (setting [10]) and in the assay with HLA-A*69:01 (setting [10]) were 551 nM and no less than 20000 nM, respectively. In the assay with HLA-B*15:01 (source organism: Mycobacterium tuberculosis str. Haarlem), ALTAGAGAY registered a Kd of 450 nM.

In the case of VYLPGRGGV, the Kd with HLA-A*02:01 [2] (setting [11]) and with HLA-A*69:01 (setting [11]) was no less than 20000 nM each time. In turn, PMVHSTFLI had a Kd with HLA-A*02:01 [2] (source organism: Homo sapiens) of 2430 nM. Regarding ETLETLLLLT, in the assay with HLA-A*26:01, the Kd is 17400 nM.

Consider GELCEDTMTY, for which the Kd with HLA-B*44:03 (source organism: Dengue virus 1 Brazil/97-11/1997) amounted to 25 nM. Consider PECPSASRAW, for which the Kd with HLA-B*44:02 (setting [12]) is 1120 nM. SELFRSRLDSY: in the assay with HLA-B*44:02 (source organism: Homo sapiens), the Kd was 5.4 nM.

In turn, IKKPDGSEC came in with an IC50 in the assay with HLA-A*02:01 [1] (setting [7]) of no less than 318000 nM. Turning to MQVFFGYFA, the Kd with HLA-A*02:02 (setting [13]) was 9.96 nM; with HLA-A*02:03 (setting [13]) it was 193 nM; with HLA-A*02:06 (setting [13]) it was 1.04 nM. As for GMSLLEYGV, the Kd in the assay with HLA-A*02:01 [2] (setting [14]) is 3.5 nM; in the assay with HLA-A*69:01 (setting [14]), no less than 20000 nM. As to ETEQPTLDY, the Kd turned out to be 16.3 nM with HLA-A*01:01 and 2890 nM with HLA-A*69:01 (source organism: Homo sapiens). With DVDMDFDLNI, the Kd with HLA-A*02:02 (setting [15]) amounted to 2030 nM; in the assay with HLA-A*02:03 (setting [15]) it was 1520 nM; in the assay with HLA-A*02:06 (setting [15]), 5820 nM. For the sequence PIIYSKAGNI, the dissociation constant Kd was 654 nM in the assay with HLA-A*02:02 (setting [15]), 139 nM with HLA-A*02:03 (setting [15]) and 728 nM in the assay with HLA-A*02:06 (setting [15]). In the assay with HLA-A*02:01 [1] (setting [5]), QVNNLEEIC returned an IC50 of no less than 112000 nM. NIREGTHVLL: the Kd with HLA-A*02:02 (setting [15]) was 8880 nM; in the assay with HLA-A*02:03 (setting [15]), 5510 nM; with HLA-A*02:06 (setting [15]) it was no less than 34600 nM. Regarding KQIMECSRML, the Kd was 54.8 nM in the assay with HLA-A*02:02 (setting [15]), no less than 29600 nM with HLA-A*02:03 (setting [15]) and 59.5 nM with HLA-A*02:06 (setting [15]). For MENLLWKQI, the Kd was 6.79 nM in the assay with HLA-B*44:02 (setting [12]) and 93.4 nM with HLA-B*44:03 (setting [12]). Turning to LALWDSNFFT, the Kd with HLA-A*02:02 (setting [15]) is 11000 nM; with HLA-A*02:03 (setting [15]) it was 19900 nM; with HLA-A*02:06 (setting [15]), 1250 nM.

As for LMQDCAIKA, the figures for the Kd in the assay with HLA-A*02:01 [2] (setting [14]) and in the assay with HLA-A*69:01 (setting [14]) were 82.1 nM and no less than 20000 nM, respectively.

Source of the values: the Immune Epitope Database (IEDB).
